Measured values reported in US8969081B2, “Caudal motor neuron derived from embryonic stem cells under conditions essentially free of any retinoid” (The Trustees of Columbia University in the City of New York, priority 2008, dated 2015).
“Also recorded” adds a separate entry of the source.

Key:
[1] = tested on: differentiating ES cells / ES-MNs; assay: Rostro-caudal patterning of differentiating ES cells (Hox / positional marker immunostaining); assay type: cell-based, mouse; details: for Rostro-caudal positional marker expression / segmental identity: EBs supplemented on Day 3, markers examined two to four days later; for Rostro-caudal identity of MNs after FGF2 (Hoxd9): 100 ng/ml on day 3
Description: (§1) Differentiation of cervical level motor neurons from mouse ES cells was performed as previously described (Wichterle et al., 2002). For differentiation of caudal brachial level MNs from ES cells, ES cells were grown in ES cell medium for two days, dissociated and plated into non-adherent tissue culture dishes using ADFNK medium at a density of 20,000 cells/ml. Medium is changed each day but not on Day 3 and Day 4 of differentiation (three and four days after dissociation of ES cells and plating into differentiation medium, respectively). Addition of any factors to differentiating embryonic bodies (EBs) was performed on Day 3. These included: 1 μg/ml Dickopf-1 Dkk1 (R&D Systems), FGF Receptor Inhibitor (PD173074, 100 nM final concentration), FGFb (Recombinant Human, FTF-basic, 120-17, PeproTech), rhGdf11 (R&D Systems, Cat#1958-GD). GDNF (10 ng/ml, R&D Systems) was supplemented on Day 5 of differentiation in selected cultures.
(§2) For immunocytochemical analysis, embryonic bodies (EBs) were dissociated using 0.05% Trypsin-EDTA on Day 6 and plated at low densities on laminin coated coverslips using ADFNB medium supplemented with 10 ng/ml Glial cell-derived neurotrophic factor (GDNF). For quantification of MN subtypes, EBs were collected on Day 6 and dissociated using 0.05 Trypsin-EDTA. Dissociated cells were plated on laminin coated coverslips using ADFNB medium (DMEM/F12, Neurobasal, 1 ml B27 50× supplement and optional 5 ng/ml of GDNF to enhance survival of MN cultures) and fixed with 4% PFA one day later.
(§3) Immunocytochemistry on ES cell-derived MNs and EBs was performed as previously described (Wichterle et al., 2002). Antibodies against the following proteins were used in the analysis during this study: Otx2, Hoxa5, Hoxc8, Hoxc6, Hoxc9, Hoxd9, Hoxd10, Foxp1, Lhx3, Pea3, Scip, NeuN, dsRed, NF.
For each experiment, 10 distinct randomized image fields were taken using a confocal microscope LSM Zeiss Meta 510. Expression of all markers used for quantifications was gated to GFP positive cells, ES cell-derived spinal MNs. Images were analyzed for the expression of the above stated markers in the context of the ES cell-derived caudal brachial MNs. Each quantification is the result of at least three independent experiments (three independent differentiation experiments).
All experiments were performed with HBG3 ES cell line harboring Hb9-GFP transgene (Wichterle et al., 2002) and key experiments were confirmed using a control MM13 ES cell line. Differentiation of HBG3 ES cell line under RA/Hh conditions into rostral cervical MNs was performed as previously described (Wichterle et al., 2002; Wichterle and Peljto, 2008). For production of cervical MNs, ES cells were plated at 50,000 cells/ml in ADFNK differentiation medium [Advanced D-MEM/F-12 (Invitrogen): Neurobasal medium (Invitrogen) (1:1), 10% Knockout Serum Replacement (Invitrogen), […] L-Glutamine (Invitrogen), 0.1 mM β-mercaptoethanol (Sigma), and Pen/Strep (Invitrogen)]. Medium was completely changed on days 1, 2 and of differentiation. EBs were split 1:4 on day 2 of differentiation and the medium was supplemented with 1 μM all-trans retinoic acid (RA, Sigma) and Hh agonist (0.5 μM SAG, Calbiochem or 1 μM HhAg1.3, (Frank-Kamenetsky et al., 2002)). To generate caudal brachial level MNs from ES cells under FGF/Hh conditions, ES cells were plated into non-adherent tissue culture dishes in ADFNK medium (˜20,000 cells/ml). Embryoid bodies (EBs) were split 1:4 on day 2 of differentiation and the medium was changed on days 1, 2 and 5. Selected cultures were supplemented with the following reagents: 10 nM-1 μM RA, 10 nM-1 μM Hh Agonist, 1 μg/ml recombinant mouse Dickkopf-1 (R&D Systems), 50-100 nM FGF/VEGF Receptor Tyrosine Kinase Inhibitor (PD173074, Calbiochem) (Mohammadi et al., 1998), 100-625 ng/ml recombinant human bFGF (PeproTech), 20 ng/ml recombinant human Gdf11/Bmp11 (R&D Systems), 10 ng/ml recombinant rat GDNF (R&D Systems). […]

ES-MNs = assay: Motor pool identity of ES-MNs (Pea3, Scip) in response to GDNF; assay type: cell-based, mouse
Description: as §1, §2, §3
All experiments were performed with HBG3 ES cell line harboring Hb9-GFP transgene (Wichterle et al., 2002) and key experiments were confirmed using a control MM13 ES cell line. Differentiation of HBG3 ES cell line under RA/Hh conditions into rostral cervical MNs was performed as previously described (Wichterle et al., 2002; Wichterle and Peljto, 2008). For production of cervical MNs, ES cells were plated at 50,000 cells/ml in ADFNK differentiation medium [Advanced D-MEM/F-12 (Invitrogen): Neurobasal medium (Invitrogen) (1:1), 10% Knockout Serum Replacement (Invitrogen), […] L-Glutamine (Invitrogen), 0.1 mM β-mercaptoethanol (Sigma), and Pen/Strep (Invitrogen)]. Medium was completely changed on days 1, 2 and of differentiation. EBs were split 1:4 on day 2 of differentiation and the medium was supplemented with 1 μM all-trans retinoic acid (RA, Sigma) and Hh agonist (0.5 μM SAG, Calbiochem or 1 μM HhAg1.3, (Frank-Kamenetsky et al., 2002)). To generate caudal brachial level MNs from ES cells under FGF/Hh conditions, ES cells were plated into non-adherent tissue culture dishes in ADFNK medium (˜20,000 cells/ml). Embryoid bodies (EBs) were split 1:4 on day 2 of differentiation and the medium was changed on days 1, 2 and 5. Selected cultures were supplemented with the following reagents: 10 nM-1 μM RA, 10 nM-1 μM Hh Agonist, 1 μg/ml recombinant mouse Dickkopf-1 (R&D Systems), 50-100 nM FGF/VEGF Receptor Tyrosine Kinase Inhibitor (PD173074, Calbiochem) (Mohammadi et al., 1998), 100-625 ng/ml recombinant human bFGF (PeproTech), 20 ng/ml recombinant human Gdf11/Bmp11 (R&D Systems), 10 ng/ml recombinant rat GDNF (R&D Systems).
For immunocytochemical analysis, EBs were dissociated using 0.05% Trypsin-EDTA (Invitrogen) on day 6 and plated at low density on coverslips (Carolina Biological) first coated with 0.001% solution of poly-1-ornithine (Sigma; diluted in water) and then with mouse laminin ([…] final concentration in PBS; Invitrogen). Cultures were plated and maintained using ADFNB culture medium [Advanced D-MEM/F12:Neurobasal (1:1), 1× B27 supplement (Invitrogen), […] L-Glutamine, and 1× Pen/Strep]. […]

[2] = Example 1, 1 μg/ml on Day 3 of differentiation

CCN(CC)CCCCNc1ncc2cc(-c3cc(OC)cc(OC)c3)c(NC(=O)NC(C)(C)C)nc2n1 [PD173074, reference compound]
Hoxc8+ cells ([1]; Example 1, 100 nM on Day 3 of differentiation): complete loss of Hoxc8+ cells
Specification of Hoxc8+ ES-MNs ([1]; Example 2, 50 nM on day 3 of differentiation (FIG. 22H)): generation of ES-MNs that expressed Hoxa5 but lacked Hoxc8 expression; also recorded: selectively prevented specification of caudal brachial Hoxc8^+ ES-MNs

FGF-2: basic fibroblast growth factor, recombinant human bFGF
Rostro-caudal positional marker expression / segmental identity ([1]; Example 1): induced predominantly thoracic identity marked by Hoxd9 expression
Induction of brachial or thoracic markers by FGF-2 ([1]; Example 1, in the presence of RA): not sufficient to induce expression of brachial or thoracic markers
Rostro-caudal identity of MNs after FGF2 (Hoxd9) ([1]; Example 2, stained day 7, listed as FGF): significant increase in Hoxd9 expressing cells
Rostro-caudal identity of MNs after FGF2 (Hoxd9) ([1]; Example 2, stained day 7, listed as FGF2): Hoxd9^+ thoracic; also recorded: increase in the number of Hoxd9^+ MNs
Specification of Hoxc8+ ES-MNs by FGF2 added to RA/Hh ([1]; up to 625 ng/ml FGF2 added to 1 μM RA/Hh differentiation condition): did not result in the specification of Hoxc8^+ ES-MNs

B1: Gdf11: Growth differentiation factor 11, recombinant human Gdf11/Bmp11 (protein, UniProt O95390 299-407, looked up)
Growth/differentiation factor …: NLGLDCDEHSSESRCCRYPLTVDFEAFGWDWIIAPKRYKANYCSGQCEYMFMQKYPHTHLVQQANPRGSAGPCCTPTKMSPINMLYFNDKQQIIYGKIPGMVVDRCGCS
Rostro-caudal positional marker expression / segmental identity ([1]; Example 1): emergence of even more caudal Hoxd10 positive lumbar nerve cells
Rostro-caudal identity of MNs after Gdf11 (Hoxd10) ([1]; Example 2, 20 ng/ml on day 3, stained day 7): Hoxd10^+ lumbar; also recorded: specification of MNs expressing Hoxd10; also recorded: significant increase in Hoxd10 expressing ES-MNs

B2: GDNF: glial cell line-derived neurotrophic factor, recombinant rat GDNF (protein, UniProt Q07731 78-211, looked up)
Glial cell line-derived …: SPDKQAAALPRRERNRQAAAASPENSRGKGRRGQRGKNRGCVLTAIHLNVTDLGLGYETKEELIFRYCSGSCEAAETMYDKILKNLSRSRRLTSDKVGQACCRPVAFDDDLSFLDDSLVYHILRKHSAKRCGCI
Pea3+ ES-MNs expressing Isl1 (ES-MNs; GDNF 10 ng/ml on day 5): ~90%
Pea3+ ES-MNs expressing Lhx1 (ES-MNs; GDNF 10 ng/ml on day 5): ~10%
Percentage of Scip+ MNs, presence versus absence of GDNF (ES-MNs; brachial MNs): not significantly different
LMC (FoxP1+) MNs expressing Pea3 (ES-MNs; caudal brachial ES-MNs, 10 ng/ml GDNF on day 5): ~20%
Pea3 expression in cervical (RA/Hh differentiated) MNs treated with GDNF (ES-MNs; cervical ES-MNs): no Pea3 expressing MNs were detected; also recorded: not sufficient to induce Pea3 expression; also recorded: do not acquire expression of Pea3
Scip+ FoxP1+ ES-MNs (ES-MNs; presence or absence of GDNF): ~10%

B3: Dkk1: Wnt antagonist, recombinant mouse Dickkopf-1 (protein, UniProt O54908 32-272, looked up)
Dickkopf-related protein 1: TLNSVLINSNAIKNLPPPLGGAGGQPGSAVSVAPGVLYEGGNKYQTLDNYQPYPCAEDEECGSDEYCSSPSRGAAGVGGVQICLACRKRRKRCMRHAMCCPGNYCKNGICMPSDHSHFPRGEIEESIIENLGNDHNAAAGDGYPRRTTLTSKIYHTKGQEGSVCLRSSDCAAGLCCARHFWSKICKPVLKEGQVCTKHKRKGSHGLEIFQRCYCGEGLACRIQKDHHQASNSSRLHTCQRH
Neural specification (NeuN) [1, 2]: did not interfere with neural specification
Otx2 expression (rostral neural identity) [1, 2]: induction of Otx2 expression
Spinal identity (Hoxa5, Hoxc8, Hoxd9, Hoxd10 expression) [1, 2]: lost their spinal identity
Otx2+ forebrain/midbrain neural cells ([1]; Example 2, 1 μg/ml on day 2, Otx2 on day 5): appearance of Otx2^+ forebrain/midbrain neural cells
Specification of spinal cells (Hox and MN markers) ([1]; Example 2, 1 μg/ml on day 2 of differentiation): lacked spinal character; also recorded: prevented specification of spinal cells
